{"source": "patent US10562935B2", "about": "“Stapled peptides and uses thereof” (London Health Sciences Centre Research Inc., priority 2015, dated 2020)", "test": "Circular dichroism (CD) spectroscopy of HABD2 peptides in Milli-Q water (Example 1)", "type": "physicochemical", "excerpt": "In addition, a large mean residue ellipticity indicates greater α-helical character. […] This was predicted to be the case, as there is a lack of contributing residues that might form a hydrophobic core, thereby helping to stabilize the secondary structure of the linear peptide. For this reason, bridges were introduced into the peptides. […] The differences in α-helicity induced by the bridges placed at different points within each peptide may be due to the differences in their primary sequences. Specifically, two amino acids (at the i and i+4 position) have to be replaced in order to form the lactam bridge. In compound 133, leucine was replaced at both the i and i+4 position; while in compound 136, glutamine was replaced at the i position and aspartic acid was replaced at i+4. Leucine and glutamine are proposed to be helix-stabilizing residues.\nA larger portion of the RHAMM protein was used as the reference for α-helical character of the truncated peptides. 7 kDa RHAMM (SEQ ID NO: 1) is a mini protein that is composed of 62 amino acids, which was derived from the C-terminus of the full-length RHAMM sequence. It contains both HABDs, and is predicted to have almost complete α-helix shape, similar to that of native full-length RHAMM.\nA peptide's α-helicity can be quantified using equations 1-3: fH=[([θ]obs222−[θ]c)/([θ]max222−[θ]c)] (Equation 1) [θ]c=2220+53T (Equation 2) [θ]max222=(−44000+250T)(1−k/N) (Equation 3) where fH is the ratio of the average number of helical hydrogen bonds divided by the total number of hydrogen bonds that can be found in a peptide, T is the temperature in degrees Celsius, N is the number of residues in the peptide and k is a constant of ellipticity when 100% of the structure is α-helical (3 for carboxyamidated peptides).\nMilli-Q water was chosen as the solvent in which all peptides would be dissolved for CD spectroscopy, as it is a UV invisible solvent, which is a requirement of the analytical technique, and it represents RHAMM's natural environment in the body. Luo and Baldwin [18] stated that when peptides are taken out of their native protein sequence, they usually show little to no helical formation in water alone. For this reason, TFE/H2O solutions are commonly used in studies to observe the α-helix characteristics, and may improve the helical nature of the peptides observed here. However, a helix-stabilizing solvent, such as TFE, would not be as contextually relevant, as there are no solvent stabilizing effects in the body. Thus use of TFE would tend to produce skewed results and not be representative of the peptide's natural behavior.", "data": [{"substance": "Ac-VSKLRSQLVKRKQN-NH2 [Compound 132]", "values": [{"measurement": "[θ]222/[θ]208 ratio of ellipticities", "setting": "0.5 mM in Milli-Q water", "result": 0.27}, {"measurement": "fH fraction helicity", "setting": "0.5 mM in Milli-Q water, equations 1-3", "result": 0.13}, {"measurement": "α-helical character by CD (in words)", "setting": "Milli-Q water", "result": "minimal α-helical character"}, {"measurement": "Molar ellipticity [θ]192", "setting": "λ = 192 nm, 0.5 mM in Milli-Q water", "result": "−433.48 deg cm^2 dmol^−1 residue^−1"}, {"measurement": "Molar ellipticity [θ]208", "setting": "λ = 208 nm, 0.5 mM in Milli-Q water", "result": "−4944.38 deg cm^2 dmol^−1 residue^−1"}, {"measurement": "Molar ellipticity [θ]222", "setting": "λ = 222 nm, 0.5 mM in Milli-Q water", "result": "−1339.76 deg cm^2 dmol^−1 residue^−1"}]}]}
